For two substances, stoichiometry N (Sgo2 per PP2A) and stoichiometry N results are on record in article PMC2749713.

For test [1], the target named is AB’C PP2A holoenzyme with GST-tagged A subunit (GST-A, B’ and C subunits) (human) (UniProt P30153). Kind of test: pull-down.
For test [2], the target named is Sgo1(51-96) peptide (human) (UniProt Q5FBB7). Kind of test: crystal structure.

Chain of AB’C PP2A holoenzyme with GST-tagged A subunit (GST-A, B’ and C subunits) (human) (P30153 2-589, chain 1 of 3): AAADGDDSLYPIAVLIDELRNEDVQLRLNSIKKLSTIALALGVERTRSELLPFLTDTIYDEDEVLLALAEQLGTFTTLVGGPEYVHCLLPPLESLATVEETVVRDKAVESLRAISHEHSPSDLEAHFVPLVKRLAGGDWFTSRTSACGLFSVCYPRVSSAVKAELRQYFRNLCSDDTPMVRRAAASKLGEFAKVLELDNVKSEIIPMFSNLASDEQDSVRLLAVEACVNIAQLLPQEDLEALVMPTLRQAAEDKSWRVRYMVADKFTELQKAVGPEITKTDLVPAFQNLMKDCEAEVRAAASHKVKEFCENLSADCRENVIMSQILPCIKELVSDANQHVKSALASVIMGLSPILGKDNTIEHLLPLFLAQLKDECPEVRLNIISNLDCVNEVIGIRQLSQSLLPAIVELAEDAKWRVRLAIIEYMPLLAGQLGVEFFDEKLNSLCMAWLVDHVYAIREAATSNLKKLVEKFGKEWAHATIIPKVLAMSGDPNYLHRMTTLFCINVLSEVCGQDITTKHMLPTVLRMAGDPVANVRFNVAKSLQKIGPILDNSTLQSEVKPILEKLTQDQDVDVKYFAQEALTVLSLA
Chain of AB’C PP2A holoenzyme with GST-tagged A subunit (GST-A, B’ and C subunits) (human) (Q13362 whole entry, chain 2 of 3, further chain): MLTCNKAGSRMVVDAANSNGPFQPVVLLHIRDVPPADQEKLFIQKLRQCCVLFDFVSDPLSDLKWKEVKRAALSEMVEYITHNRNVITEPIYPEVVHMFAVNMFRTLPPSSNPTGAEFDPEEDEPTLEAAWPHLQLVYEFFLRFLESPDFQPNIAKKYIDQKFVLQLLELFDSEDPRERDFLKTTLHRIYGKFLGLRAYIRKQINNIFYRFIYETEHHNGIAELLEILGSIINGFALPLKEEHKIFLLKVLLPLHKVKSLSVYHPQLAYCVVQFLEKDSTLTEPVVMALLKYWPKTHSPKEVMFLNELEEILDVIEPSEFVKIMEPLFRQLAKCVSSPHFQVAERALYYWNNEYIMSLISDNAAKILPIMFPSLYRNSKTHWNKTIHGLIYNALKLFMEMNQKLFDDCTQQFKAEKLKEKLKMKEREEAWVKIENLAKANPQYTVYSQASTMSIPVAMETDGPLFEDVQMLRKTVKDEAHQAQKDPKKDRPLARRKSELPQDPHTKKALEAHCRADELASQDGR
Chain of AB’C PP2A holoenzyme with GST-tagged A subunit (GST-A, B’ and C subunits) (human) (P67775 whole entry, chain 3 of 3, further chain): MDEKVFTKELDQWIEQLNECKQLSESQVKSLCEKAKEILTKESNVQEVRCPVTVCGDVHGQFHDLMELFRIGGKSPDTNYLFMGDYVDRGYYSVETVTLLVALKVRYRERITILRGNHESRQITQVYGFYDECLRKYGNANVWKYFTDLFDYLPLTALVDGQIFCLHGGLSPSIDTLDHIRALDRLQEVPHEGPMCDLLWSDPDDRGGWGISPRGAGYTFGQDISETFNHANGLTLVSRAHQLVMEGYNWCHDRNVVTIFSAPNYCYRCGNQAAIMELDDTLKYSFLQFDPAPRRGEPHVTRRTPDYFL

As for “MBP-Sgo2(45-117) (from UniProt Q7TSY8 45-117) (domain or fragment)”, the stoichiometry N (Sgo2 per PP2A) in test [1] came to 2.
The term stoichiometry N denotes a count of units in the complex or per binding partner. “Sgo1(51-96) peptide (from UniProt Q5FBB7 51-96)” yielded a stoichiometry N in test [2] of 2.
